# Test results from patent US11932673B2, “Sodium channel inhibitors” (priority 2017, dated 2024).
# B1: KB_A12: EETI-II VL CDR2 KnotBody, D1A12 VH, VL SEQ ID NO: 105/373; parental/isotype control (antibody, V domains shown)
# VH: EVQLVESGGGLVRPGGSLRLSCAASGFTFSSYAMSWVRQAPGKGLEWVSAISGSGGSTYYADSVKGRFTISRDNTKNSLYLQMTSLRADDTAFYYCVKDFGPGYGTGWFDYWGPGTLVTVSS
# VL: QSVLTQPPSVSEAPRQRVTITCSGSSSNIGNNAVNWYQQLPGKAPKLLIYAAGRCPRILMRCKQDSDCLAGCVCGPNGFCGANSGVSDRFSAAKSGTSASLAINGLRSEDEADYYCAAWDDSLNGYVFGTGTKLTVLG
# Experiments:
# trypsin [1] = assay: Phage TRF binding assay of KnotBody phage on immobilised biotinylated trypsin
# Description: Phage display technology facilitates isolation of binders to any given target from large combinatorial repertoires based on proteins and peptides that can be presented on the surface of filamentous phage^105. In order to isolate functional knottin-antibody fusions from the KnotBody libraries multiple rounds of phage display selections on trypsin (cognate antigen for the EETI-II donor) were carried out. Phage particles were prepared by rescuing KnotBody libraries using trypsin cleavable helper phage^102,106 Two rounds of phage display selections were performed on 10 μg/ml biotinylated trypsin immobilised on Streptavidin (for Round-1) or Neutravidin (for round-2) coated Maxisorp™ immunotubes (Thermo Scientific, Cat No. 444202). In both rounds of selection, phage libraries were pre-incubated with streptavidin coated paramagnetic beads (Thermo Fisher Scientific, Cat. No. 11205D). These beads were removed prior to the addition the phage to the antigen tubes to limit the streptavidin binders entering the selection. Polyclonal phage preparations from round-2 selection outputs were analysed for trypsin binding using a time resolved fluorescence (TRF) binding assay. In this assay, polyclonal phage binding to biotinylated trypsin immobilised on neutravidin (Thermo Fisher Scientific, Cat. No 31000) coated Maxisorp™ plates (Thermo Scientific, Cat. No. 437111) was detected using a mouse anti-M13 antibody (GE Healthcare, Cat. No. 27-9420-01) followed by europium conjugated anti-mouse antibody (Perkin Elmer, Cat. No. AD0124).
# In order to identify monoclonal KnotBodies with desired binding characteristics, 94 individual clones derived from 2 rounds of selection using EETI-II CDR1 or CDR2 libraries were picked into 96 well culture plates and phage were prepared from each clone. Methods for screening by monoclonal phage ELISA are known in the art^107. […] Clones with >3× binding signal above background were picked as positive clones and sequenced to identify unique clones. 14 and 42 unique binders were identified from EETI-II CDR1 and EETI-II CDR2 libraries respectively (Table 1). 18 binders from the EETI-II CDR2 library and 3 binders from the EETI-II-CDR1 library were chosen for further characterisation based on their VL and linker sequence diversity. These binders were assigned new clone identification numbers (Table 2). […] In order to confirm that the loss of trypsin binding was not due to reduced expression or display of pIII fusion phage was prepared from 11 (randomly chosen) KnotBodies and their GlyAla variants were analysed on a western blot using an antibody which recognises the product of gene 3 (pIII) using an anti-pIII antibody (MoBiTec GmbH) (FIG. 6).
# trypsin [2] = assay: Phage trypsin binding assay, KB_A12 versus EETI-II cow ULVC-Ab; conditions: PEG precipitated phage, 12.5x and 0.5x
# Source text: Bovine antibodies have been described with natural ultra-long VH CDR3s containing a solvent exposed double stranded antiparallel sheet approximately 20 A° in length (referred to as the stalk) presenting a folded domain stabilised by 3 disulfide bonds (referred to as the Knob)^10. Zhang and colleagues have shown that the Knob domains of these cow ultra-long VH CDR3 antibodies (ULVC-Ab) can be replaced with other folded proteins such as erythropoietin^13. In this example, we assess the ability of a cow ULVC-Ab to present functional knottin fusions on phage in comparison with a KnotBody. In order to create a Knottin-cow UCLA fusion, the sequence between the first and the last cysteines of the knob region of the Cow ULVC-Ab BLV1H12 was replaced with the sequence of the trypsin binding knottin; EETI-II (EETI-II cow ULVC-Ab). A gene fragment encoding this construct was synthesised (Integrated DNA technologies, Table 21). This synthetic gene was cloned into the phage display vector pSANG4 using restriction sites NcoI and NotI and transformed into E. coli TG1 cells. […] In this assay, the binding of phage rescued from EETI-II cow ULVC-Ab and KB_A12 to trypsin was detected using an anti-M13 antibody followed by europium conjugated anti-mouse antibody (as described in example 3).
# human Nav1.7 = human Nav1.7 (Homo sapiens, UniProt Q15858); assay: QPatch patch-clamp on CHO cells stably expressing human Nav1.7, single application (Example 19); type: cell-based; conditions: 20 minutes application; run-down of external solution control subtracted
# Description: The effect of these KnotBodies on cells expressing human Nav1.7 (huNav1.7) channel was assessed using QPatch automated patch-clamp platform (Sophion). For the testing of Nav1.7 ion channel currents, CHO cells stably expressing human Nav1.7 (GenBank accession number NM 002977; cell line catalogue number CT6003, Charles River Discovery, Cleveland, USA) were subjected to the QPatch electrophysiology assay in the presence or absence of the KnotBody fusions or the antibody isotypes (negative controls). Internal and external physiological solutions were freshly prepared prior to the assay. The extracellular solution contained 145 mM NaCl, 4 mM KCl, 2 mM CaCl2, 1 mM MgCl2, 10 mM HEPES and 10 mM glucose; the pH was adjusted to 7.4 with NaOH; the osmolarity was ˜305 mOsm/L. The intracellular solution contained: KF (120 mM), KCl (20 mM), HEPES (10 mM) EGTA (10 mM); the pH was adjusted to 7.2 with KOH; osmolarity was ˜300 mOsm/L.
# A series of depolarising voltage (channel activating) pulses were used to monitor the channel currents upon adding control (extracellular solution) to define a control baseline of current activity. To these measured control channel currents KnotBody or parental antibody isotypes (control molecules) were applied to the external bathing solution. The parental KnotBody KB_A12 (with trypsin inhibitor knottin EETI-II at CDR2) were used as test molecule isotype controls for the testing. […] The elicited, maximum outward current values measured during the −10 mV activating step for each solution period (a control, baseline level of current was determined at 10 minutes after application of the control external recording solution and a test level of current was determined after 20 minutes of application of KnotBody or its isotype) and average inhibition was determined between the current from the 10 minute baseline control current and the subsequent 20 minute KnotBody application. […] The average inhibition values (with external control reduction subtracted) for KnotBodies and isotypes was calculated.
# Sequence of human Nav1.7 (Q15858 other isoform, or with tags, fused parts or gaps): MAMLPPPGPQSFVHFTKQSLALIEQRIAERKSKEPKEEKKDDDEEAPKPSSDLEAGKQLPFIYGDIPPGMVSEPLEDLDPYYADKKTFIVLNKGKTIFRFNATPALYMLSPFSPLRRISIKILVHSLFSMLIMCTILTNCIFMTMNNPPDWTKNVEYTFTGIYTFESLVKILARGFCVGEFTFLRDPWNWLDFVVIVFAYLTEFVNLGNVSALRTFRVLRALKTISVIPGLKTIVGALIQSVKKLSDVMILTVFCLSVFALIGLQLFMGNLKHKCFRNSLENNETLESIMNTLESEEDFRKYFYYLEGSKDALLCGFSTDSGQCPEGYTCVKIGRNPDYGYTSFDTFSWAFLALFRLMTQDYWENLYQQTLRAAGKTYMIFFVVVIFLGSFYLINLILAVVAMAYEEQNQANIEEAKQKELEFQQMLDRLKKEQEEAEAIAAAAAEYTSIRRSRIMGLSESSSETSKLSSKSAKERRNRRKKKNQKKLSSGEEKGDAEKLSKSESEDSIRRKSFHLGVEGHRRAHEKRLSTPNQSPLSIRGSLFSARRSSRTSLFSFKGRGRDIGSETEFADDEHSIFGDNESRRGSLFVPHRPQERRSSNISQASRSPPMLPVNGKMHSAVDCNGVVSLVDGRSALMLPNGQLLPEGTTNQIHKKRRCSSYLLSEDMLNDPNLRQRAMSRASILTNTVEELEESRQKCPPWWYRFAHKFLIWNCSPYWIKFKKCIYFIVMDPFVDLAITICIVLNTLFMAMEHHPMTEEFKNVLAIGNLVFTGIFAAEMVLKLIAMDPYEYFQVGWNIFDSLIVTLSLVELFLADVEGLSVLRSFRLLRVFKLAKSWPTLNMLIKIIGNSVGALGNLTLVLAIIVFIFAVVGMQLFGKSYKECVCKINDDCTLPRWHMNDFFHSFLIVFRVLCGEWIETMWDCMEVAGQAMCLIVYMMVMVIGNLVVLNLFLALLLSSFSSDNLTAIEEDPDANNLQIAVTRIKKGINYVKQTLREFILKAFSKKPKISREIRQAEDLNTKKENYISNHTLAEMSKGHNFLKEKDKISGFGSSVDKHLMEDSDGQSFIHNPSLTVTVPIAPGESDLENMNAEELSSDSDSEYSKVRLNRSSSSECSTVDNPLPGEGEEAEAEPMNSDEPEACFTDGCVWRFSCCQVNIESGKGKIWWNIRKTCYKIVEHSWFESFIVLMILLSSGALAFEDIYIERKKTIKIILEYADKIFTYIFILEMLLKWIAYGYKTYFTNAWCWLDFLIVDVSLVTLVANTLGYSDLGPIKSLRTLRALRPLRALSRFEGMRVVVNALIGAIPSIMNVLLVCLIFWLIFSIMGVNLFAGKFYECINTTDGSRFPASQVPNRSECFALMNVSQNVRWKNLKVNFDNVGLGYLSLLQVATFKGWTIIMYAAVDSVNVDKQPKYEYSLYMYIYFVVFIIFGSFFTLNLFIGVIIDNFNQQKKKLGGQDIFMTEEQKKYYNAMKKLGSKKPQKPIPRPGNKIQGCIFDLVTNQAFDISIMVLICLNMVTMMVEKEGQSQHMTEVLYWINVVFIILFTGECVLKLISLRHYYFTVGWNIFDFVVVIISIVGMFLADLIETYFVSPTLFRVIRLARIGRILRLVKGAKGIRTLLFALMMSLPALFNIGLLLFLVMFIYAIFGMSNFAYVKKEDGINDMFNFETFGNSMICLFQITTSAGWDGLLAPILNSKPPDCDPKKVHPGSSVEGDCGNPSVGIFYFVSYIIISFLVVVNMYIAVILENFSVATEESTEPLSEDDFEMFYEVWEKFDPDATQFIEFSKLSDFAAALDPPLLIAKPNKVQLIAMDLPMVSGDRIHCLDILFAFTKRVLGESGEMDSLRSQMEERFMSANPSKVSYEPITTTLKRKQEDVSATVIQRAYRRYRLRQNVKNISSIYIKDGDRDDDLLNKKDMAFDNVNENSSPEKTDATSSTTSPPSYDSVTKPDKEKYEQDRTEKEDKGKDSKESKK
molecule,measurement,setting,value
B1,% reduction in binding signal,"trypsin [1]; […], monoclonal phage, streptavidin coated plates",99%
same,Tryspin binding signal (FU),"trypsin [1]; monoclonal phage supernatant, biotinylated trypsin on neutravidin coated plates, TRF",69349 FU
same,phage binding to trypsin,trypsin [2],superior binding to trypsin compared to the EET-II-Cow ULVC-Ab fusion
same,inhibition in measured Nav1.7 current,human Nav1.7,"small inhibition in measured current, which was not statistically significant"
